The text below walks through data of patent publication US20260109776A1 (Amgen, published 2026).

The labels stand for the following.
T1: cynoCD40(1-193) (cynomolgus monkey, UniProt P25942 21-193 (human entry))
T1 construct: also called soluble cynomolgus monkey CD40
T1 chain: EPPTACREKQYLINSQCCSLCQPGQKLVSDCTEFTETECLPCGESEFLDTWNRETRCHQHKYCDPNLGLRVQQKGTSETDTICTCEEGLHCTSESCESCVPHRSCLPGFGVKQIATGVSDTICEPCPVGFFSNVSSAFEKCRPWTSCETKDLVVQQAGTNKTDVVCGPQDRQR

T2: cynoMSLN(296-598) (cynomolgus monkey)
T2 chain: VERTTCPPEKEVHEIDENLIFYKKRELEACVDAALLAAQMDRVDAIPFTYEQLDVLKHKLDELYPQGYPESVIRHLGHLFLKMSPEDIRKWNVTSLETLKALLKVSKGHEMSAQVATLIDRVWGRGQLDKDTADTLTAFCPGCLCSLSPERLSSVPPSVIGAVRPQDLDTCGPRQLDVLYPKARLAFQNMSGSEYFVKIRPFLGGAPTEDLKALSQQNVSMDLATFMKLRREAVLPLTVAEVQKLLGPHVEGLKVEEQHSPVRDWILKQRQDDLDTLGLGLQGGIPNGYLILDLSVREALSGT

T3: cynoCD40(1-193) (cynomolgus monkey, UniProt P25942 21-193 (human entry))
T3 construct: Soluble form used in Octet; also called cynomolgus monkey CD40
T3 chain: T1 chain

B1: 6053-2 (bispecific antibody)
heavy: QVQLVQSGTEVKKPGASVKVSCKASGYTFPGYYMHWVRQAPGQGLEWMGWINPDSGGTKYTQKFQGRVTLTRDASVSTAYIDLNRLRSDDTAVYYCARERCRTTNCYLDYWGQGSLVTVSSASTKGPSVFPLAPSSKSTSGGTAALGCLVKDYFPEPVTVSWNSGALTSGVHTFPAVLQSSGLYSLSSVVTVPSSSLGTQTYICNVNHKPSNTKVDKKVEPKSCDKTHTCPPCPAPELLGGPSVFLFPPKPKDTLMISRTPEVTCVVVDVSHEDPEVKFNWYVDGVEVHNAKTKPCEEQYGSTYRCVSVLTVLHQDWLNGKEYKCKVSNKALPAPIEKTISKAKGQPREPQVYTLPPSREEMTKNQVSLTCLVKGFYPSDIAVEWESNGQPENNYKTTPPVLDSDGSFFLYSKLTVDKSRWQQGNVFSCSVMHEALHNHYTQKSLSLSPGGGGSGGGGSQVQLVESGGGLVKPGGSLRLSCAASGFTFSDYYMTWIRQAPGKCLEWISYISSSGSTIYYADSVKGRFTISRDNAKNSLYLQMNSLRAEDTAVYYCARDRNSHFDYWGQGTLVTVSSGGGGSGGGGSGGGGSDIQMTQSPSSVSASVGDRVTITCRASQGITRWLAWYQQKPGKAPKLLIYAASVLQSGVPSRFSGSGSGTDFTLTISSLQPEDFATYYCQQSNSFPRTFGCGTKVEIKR
light: QSALTQPASVSGSPGQSITISCTGTSSDVGNYNLVSWYQQHPGKAPKLMIYEVNRRPSGVSNRFSGSKSGNTASLTISGLQAEDEAEYYCCSYAGRDTFVVFGGGTKLTVLGQPKAAPSVTLFPPSSEELQANKATLVCLISDFYPGAVTVAWKADSSPVKAGVETTTPSKQSNNKYAASSYLSLTPEQWKSHRSYSCQVTHEGSTVEKTVAPTECS
notes: IgG-scFv: IgG (CD40) 39C2, scFv (MSLN) 4H6
B2: 6023-2 (bispecific antibody)
heavy: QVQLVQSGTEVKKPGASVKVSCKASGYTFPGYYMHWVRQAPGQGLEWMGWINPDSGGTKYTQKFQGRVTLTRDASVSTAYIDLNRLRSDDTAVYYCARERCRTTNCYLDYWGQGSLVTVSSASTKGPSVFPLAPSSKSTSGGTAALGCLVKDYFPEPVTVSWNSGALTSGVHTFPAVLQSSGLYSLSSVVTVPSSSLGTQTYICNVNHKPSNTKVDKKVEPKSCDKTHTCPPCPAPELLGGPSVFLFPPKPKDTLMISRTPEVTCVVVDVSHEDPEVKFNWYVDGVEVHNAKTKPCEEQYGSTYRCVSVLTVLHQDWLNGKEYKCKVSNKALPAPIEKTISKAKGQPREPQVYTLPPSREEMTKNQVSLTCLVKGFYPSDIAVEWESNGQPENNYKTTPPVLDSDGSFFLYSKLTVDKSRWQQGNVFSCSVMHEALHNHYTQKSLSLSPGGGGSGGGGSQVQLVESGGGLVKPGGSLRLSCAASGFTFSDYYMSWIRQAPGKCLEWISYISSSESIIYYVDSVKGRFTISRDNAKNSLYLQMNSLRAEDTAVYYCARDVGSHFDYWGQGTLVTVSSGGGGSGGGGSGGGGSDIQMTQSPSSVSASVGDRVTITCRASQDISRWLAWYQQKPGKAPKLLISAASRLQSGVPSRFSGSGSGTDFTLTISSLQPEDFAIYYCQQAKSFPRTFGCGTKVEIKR
light: B1 light
notes: IgG-scFv: IgG (CD40) 39C2, scFv (MSLN) 6F4
B3: 6055-2 (bispecific antibody)
heavy: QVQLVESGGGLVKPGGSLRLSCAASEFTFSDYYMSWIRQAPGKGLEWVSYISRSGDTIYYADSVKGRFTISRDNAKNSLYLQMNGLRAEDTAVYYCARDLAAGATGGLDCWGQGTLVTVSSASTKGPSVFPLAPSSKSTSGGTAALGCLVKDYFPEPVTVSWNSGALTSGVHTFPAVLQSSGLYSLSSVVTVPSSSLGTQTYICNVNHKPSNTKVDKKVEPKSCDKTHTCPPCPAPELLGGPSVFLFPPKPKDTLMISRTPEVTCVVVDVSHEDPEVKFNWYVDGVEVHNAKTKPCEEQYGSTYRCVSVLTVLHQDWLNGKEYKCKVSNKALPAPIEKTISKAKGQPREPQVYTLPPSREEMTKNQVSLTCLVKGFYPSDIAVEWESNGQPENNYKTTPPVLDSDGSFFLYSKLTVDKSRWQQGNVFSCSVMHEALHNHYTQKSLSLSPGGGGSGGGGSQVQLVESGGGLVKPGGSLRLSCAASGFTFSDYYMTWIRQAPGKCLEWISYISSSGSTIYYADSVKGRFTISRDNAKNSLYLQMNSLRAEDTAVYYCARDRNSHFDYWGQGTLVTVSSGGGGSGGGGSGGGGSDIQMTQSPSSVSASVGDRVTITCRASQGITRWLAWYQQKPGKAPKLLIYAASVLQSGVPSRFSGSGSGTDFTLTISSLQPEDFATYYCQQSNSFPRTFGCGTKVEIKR
light: SYELTQPPSVSVSPGQTASITCSGERLGNKYICWYQQKPGQSPVLVIYQDFKRPSGIPERFSGSNSGITATLTISGTQAMDEADYYCQAWDSRTVVFGGGTKLTVLGQPKAAPSVTLFPPSSEELQANKATLVCLISDFYPGAVTVAWKADSSPVKAGVETTTPSKQSNNKYAASSYLSLTPEQWKSHRSYSCQVTHEGSTVEKTVAPTECS
notes: IgG-scFv: IgG (CD40) 37A6, scFv (MSLN) 4H6
B4: 6054-2 (bispecific antibody)
heavy: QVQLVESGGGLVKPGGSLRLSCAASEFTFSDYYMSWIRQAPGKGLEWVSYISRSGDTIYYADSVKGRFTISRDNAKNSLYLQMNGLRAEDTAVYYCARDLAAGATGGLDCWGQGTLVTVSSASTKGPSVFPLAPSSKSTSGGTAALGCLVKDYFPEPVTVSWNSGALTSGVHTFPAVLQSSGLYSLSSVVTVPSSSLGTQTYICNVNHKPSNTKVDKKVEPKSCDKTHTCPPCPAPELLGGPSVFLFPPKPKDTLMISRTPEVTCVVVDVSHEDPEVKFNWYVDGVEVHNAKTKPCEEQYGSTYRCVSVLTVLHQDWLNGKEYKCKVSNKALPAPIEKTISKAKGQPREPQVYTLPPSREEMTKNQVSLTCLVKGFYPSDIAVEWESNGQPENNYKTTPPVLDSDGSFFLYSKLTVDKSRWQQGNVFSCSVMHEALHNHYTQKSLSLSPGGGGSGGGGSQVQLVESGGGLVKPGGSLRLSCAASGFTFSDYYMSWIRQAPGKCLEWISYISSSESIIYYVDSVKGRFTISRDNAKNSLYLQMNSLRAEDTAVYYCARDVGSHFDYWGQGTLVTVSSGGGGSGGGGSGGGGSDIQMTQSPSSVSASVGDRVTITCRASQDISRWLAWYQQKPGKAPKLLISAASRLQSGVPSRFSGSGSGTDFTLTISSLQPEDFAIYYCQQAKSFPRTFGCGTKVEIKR
light: B3 light
notes: IgG-scFv: IgG (CD40) 37A6, scFv (MSLN) 6F4
B5: 6051-2 (bispecific antibody)
heavy: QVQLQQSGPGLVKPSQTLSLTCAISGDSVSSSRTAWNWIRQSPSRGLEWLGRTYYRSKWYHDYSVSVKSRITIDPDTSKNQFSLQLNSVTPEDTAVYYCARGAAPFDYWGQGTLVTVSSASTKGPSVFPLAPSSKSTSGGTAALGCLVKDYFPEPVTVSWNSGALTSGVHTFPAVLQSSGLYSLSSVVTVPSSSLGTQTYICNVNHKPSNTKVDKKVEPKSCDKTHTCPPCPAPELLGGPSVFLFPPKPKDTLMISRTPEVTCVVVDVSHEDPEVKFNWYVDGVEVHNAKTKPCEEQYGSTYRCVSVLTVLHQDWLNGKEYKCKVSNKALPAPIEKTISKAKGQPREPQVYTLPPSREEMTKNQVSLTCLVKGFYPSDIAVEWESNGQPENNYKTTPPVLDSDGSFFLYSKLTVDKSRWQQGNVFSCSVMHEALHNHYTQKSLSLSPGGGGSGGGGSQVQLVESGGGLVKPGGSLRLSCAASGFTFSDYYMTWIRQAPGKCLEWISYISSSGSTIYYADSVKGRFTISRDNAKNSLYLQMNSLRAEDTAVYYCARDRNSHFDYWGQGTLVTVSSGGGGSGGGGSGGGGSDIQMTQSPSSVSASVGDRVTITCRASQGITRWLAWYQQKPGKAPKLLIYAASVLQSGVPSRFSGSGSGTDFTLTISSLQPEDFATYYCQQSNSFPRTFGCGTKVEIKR
light: EIVLTQSPGTLSLSPGERATLSCRASQSVSSNYLAWYQQKPGQAPRALIYAASNRAAGISDRFSGSGSGTDFTLTISRLEPEDFAVYFCQQYGSSPLTFGGGTKVEIKRTVAAPSVFIFPPSDEQLKSGTASVVCLLNNFYPREAKVQWKVDNALQSGNSQESVTEQDSKDSTYSLSSTLTLSKADYEKHKVYACEVTHQGLSSPVTKSFNRGEC
notes: IgG-scFv: IgG (CD40) 36F3, scFv (MSLN) 4H6
B6: 6043-2 (bispecific antibody)
heavy: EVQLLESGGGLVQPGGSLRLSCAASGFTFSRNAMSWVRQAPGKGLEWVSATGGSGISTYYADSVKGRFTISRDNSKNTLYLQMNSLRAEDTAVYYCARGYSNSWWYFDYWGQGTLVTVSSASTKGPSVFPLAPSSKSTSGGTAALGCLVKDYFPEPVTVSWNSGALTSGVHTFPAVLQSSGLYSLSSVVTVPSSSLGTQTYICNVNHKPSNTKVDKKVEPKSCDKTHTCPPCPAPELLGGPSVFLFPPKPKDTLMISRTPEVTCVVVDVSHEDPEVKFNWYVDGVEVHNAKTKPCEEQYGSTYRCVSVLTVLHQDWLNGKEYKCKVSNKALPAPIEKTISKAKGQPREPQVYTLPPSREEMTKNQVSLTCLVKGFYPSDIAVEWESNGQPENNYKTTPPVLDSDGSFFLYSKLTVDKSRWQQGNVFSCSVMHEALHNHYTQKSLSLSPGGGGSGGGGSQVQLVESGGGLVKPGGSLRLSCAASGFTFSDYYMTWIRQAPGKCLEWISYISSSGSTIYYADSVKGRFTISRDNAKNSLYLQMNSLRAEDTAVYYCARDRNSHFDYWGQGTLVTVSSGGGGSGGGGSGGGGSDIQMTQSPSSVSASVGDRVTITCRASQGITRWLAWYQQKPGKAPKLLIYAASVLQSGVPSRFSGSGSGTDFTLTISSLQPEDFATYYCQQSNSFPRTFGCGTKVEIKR
light: QSALTQPASVSGSPGQSITISCTGTSSDVGNYNLVSWYQQHPGKAPKLMIFEVNQRPSGVSNRFSGSKSGTTASLTISGLQAADEADYFCCSYTTSSTYVIFGGGTKLTVLGQPKAAPSVTLFPPSSEELQANKATLVCLISDFYPGAVTVAWKADSSPVKAGVETTTPSKQSNNKYAASSYLSLTPEQWKSHRSYSCQVTHEGSTVEKTVAPTECS
notes: IgG-scFv: IgG (CD40) 30A12, scFv (MSLN) 4H6
B7: Anti-CD40xMSLN IgG-Fab molecule 5966-1 (bispecific antibody)
chain 1: QVQLVESGGGLVKPGGSLRLSCAASGFTFSDYYMTWIRQAPGKGLEWISYISSSGSTIYYADSVKGRFTISRDNAKNSLYLQMNSLRAEDTAVYYCARDRNSHFDYWGQGTLVTVSS
chain 2: DIQMTQSPSSVSASVGDRVTITCRASQGITRWLAWYQQKPGKAPKLLIYAASVLQSGVPSRFSGSGSGTDFTLTISSLQPEDFATYYCQQSNSFPRTFGQGTKVEIK
chain 3: QVQLVESGGGLVKPGGSLRLSCAASEFTFSDYYMSWIRQAPGKGLEWVSYISRSGDTIYYADSVKGRFTISRDNAKNSLYLQMNGLRAEDTAVYYCARDLAAGATGGLDCWGQGTLVTVSS
chain 4: SYELTQPPSVSVSPGQTASITCSGERLGNKYICWYQQKPGQSPVLVIYQDFKRPSGIPERFSGSNSGITATLTISGTQAMDEADYYCQAWDSRTVVFGGGTKLTVLG
B8: Anti-CD40xMSLN IgG-Fab molecule 5991-1 (bispecific antibody)
chain 1: EVQLLESGGGLVQPGGSLRLSCAASGFTFSRNAMSWVRQAPGKGLEWVSATGGSGISTYYADSVKGRFTISRDNSKNTLYLQMNSLRAEDTAVYYCARGYSNSWWYFDYWGQGTLVTVSS
chain 2: B6 light
chain 3: B7 chain 1 with T35S, G55E, T57I, A61V, R100V, N101G
chain 4: DIQMTQSPSSVSASVGDRVTITCRASQDISRWLAWYQQKPGKAPKLLISAASRLQSGVPSRFSGSGSGTDFTLTISSLQPEDFAIYYCQQAKSFPRTFGQGTKVEIKR

Positions count from the first letter of the chain named.

The target of the first experiment is T4, huCD40(1-193) (human, UniProt P25942 21-193).
T4 construct: also called soluble human CD40
In words: Octet. The method, then: (§1) A panel of mesothelin×CD40 bispecific antibodies were generated in the IgG-scFv format (Table 13) and evaluated for binding to soluble forms of human and cynomolgus monkey CD40 and human and cynomolgus monkey mesothelin using the Octet assay (Table 14). Association rate (Kon), disassociation rate (Kdis), and equilibrium binding constant (KD) were calculated. […] These bispecific antibodies were next evaluated for their ability to induce mesothelin-dependent activation of human B cells. CHO cells expressing human mesothelin were seeded into a 96 well plate. The next day varying concentrations of the mesothelin×CD40 IgG-scFv antibodies were added to the wells along with purified human B cells and the plates were incubated for an additional 48 hours. Upregulation of CD86, a marker of CD40-mediated B cell activation, was quantified on B cells by flow cytometry.
(BLI is a label-free optical method that tracks binding on a fibre tip over time.)
As a reminder, the Kd is the equilibrium constant for the complex coming apart. A high value points to weaker binding. The term koff denotes a measure of how fast the partners let go of each other. Low values mean a long-lived complex, high ones a short-lived complex. By kon is commonly meant the rate constant with which the complex forms. Read a high kon as fast association. Molecule B1 gave a dissociation constant Kd of 0.9 nM, a koff of 0.000427 s⁻¹ and an association rate constant (kon) of 453000 M⁻¹ s⁻¹.

As for B2, binding was put at a Kd of 1 nM, the off-rate (koff) amounted to 0.00044 s⁻¹ and the association rate constant (kon) is 431000 M⁻¹ s⁻¹.

In turn, B3 showed a Kd of 0.5 nM, a koff of 0.000787 s⁻¹ and a kon of 1.46e+06 M⁻¹ s⁻¹.

Consider B4, for which the dissociation constant (Kd) was 0.8 nM, the koff is 0.000333 s⁻¹ and the kon was found to be 438000 M⁻¹ s⁻¹.

Regarding B5, the Kd was determined as 3.5 nM, the off-rate (koff) was 0.000431 s⁻¹ and the kon came to 124000 M⁻¹ s⁻¹.

With B6, the affinity, expressed as Kd, was 1.2 nM; the koff is 0.000407 s⁻¹; the kon stood at 321000 M⁻¹ s⁻¹.

The next experiment addresses T1, cynoCD40(1-193). As to the kind of experiment: Octet. The protocol:
as §1
Turning to B1, binding was put at a Kd of 0.5 nM, the koff is 0.000125 s⁻¹ and the kon amounted to 263000 M⁻¹ s⁻¹.

Turning to B2, the dissociation constant (Kd) amounted to 0.9 nM, the koff was determined as 0.000413 s⁻¹ and the kon amounted to 447000 M⁻¹ s⁻¹.

B3 gave a Kd of 0.8 nM, a koff of 0.00057 s⁻¹ and a kon of 745000 M⁻¹ s⁻¹.

B4 returned a Kd of 1.4 nM, an off-rate (koff) of 0.0004 s⁻¹ and an on-rate (kon) of 277000 M⁻¹ s⁻¹.

With B5, the dissociation constant (Kd) turned out to be 4.7 nM, the off-rate constant (koff) was 0.000466 s⁻¹ and the on-rate constant (kon) amounted to 100000 M⁻¹ s⁻¹.

As to B6, the Kd is 0.9 nM, the koff was determined as 0.000407 s⁻¹ and the kon was 422000 M⁻¹ s⁻¹.

Another experiment deals with T5, huMSLN(296-598) (human, UniProt Q13421 296-598).
T5 construct: also called soluble human mesothelin
As to the kind of experiment: Octet. The protocol:
as §1
T5 sequence (Q13421 other isoform, or with tags, fused parts or gaps): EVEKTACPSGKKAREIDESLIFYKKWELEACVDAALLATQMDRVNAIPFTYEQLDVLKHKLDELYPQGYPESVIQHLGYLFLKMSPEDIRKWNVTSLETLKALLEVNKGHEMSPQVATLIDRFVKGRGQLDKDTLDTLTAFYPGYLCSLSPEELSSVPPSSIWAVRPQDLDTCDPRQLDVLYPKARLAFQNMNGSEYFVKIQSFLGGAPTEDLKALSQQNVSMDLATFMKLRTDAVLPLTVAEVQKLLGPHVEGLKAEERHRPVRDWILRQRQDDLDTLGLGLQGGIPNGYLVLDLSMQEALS
B1 showed a Kd of 0.4 nM, a dissociation rate constant (koff) of 0.000151 s⁻¹ and an association rate constant (kon) of 341000 M⁻¹ s⁻¹.

The molecule B2 displayed a Kd of 1.1 nM, a koff of 0.00046 s⁻¹ and a kon of 432000 M⁻¹ s⁻¹.

On to B3, for which the affinity, expressed as Kd, was 0.4 nM; the koff was found to be 0.000211 s⁻¹; the kon turned out to be 552000 M⁻¹ s⁻¹.

On to B4, for which the Kd is 1.3 nM, the off-rate constant (koff) is 0.000462 s⁻¹ and the on-rate constant (kon) came out at 367000 M⁻¹ s⁻¹.

The molecule B5 came in with a Kd of 0.2 nM, a koff of 0.000135 s⁻¹ and an on-rate constant (kon) of 599000 M⁻¹ s⁻¹.

B6: the Kd is 0.1 nM, the dissociation rate constant (koff) is 3.87e-05 s⁻¹ and the kon came out at 444000 M⁻¹ s⁻¹.

For another experiment, the target named is T2, cynoMSLN(296-598). In words: Octet. The method, then:
as §1
Turning to B1, the affinity, expressed as Kd, was 4.3 nM; the koff came out at 0.00109 s⁻¹; the association rate constant (kon) worked out at 252000 M⁻¹ s⁻¹.

In turn, B2 yielded a Kd of 16 nM, a koff of 0.00535 s⁻¹ and an on-rate constant (kon) of 326000 M⁻¹ s⁻¹.

Take B3: the dissociation constant Kd was found to be 6.1 nM, the koff amounted to 0.00109 s⁻¹ and the kon was 179000 M⁻¹ s⁻¹.

Consider B4, for which the Kd worked out at 17 nM, the dissociation rate constant (koff) worked out at 0.00578 s⁻¹ and the association rate constant (kon) worked out at 336000 M⁻¹ s⁻¹.

With B5, the dissociation constant (Kd) turned out to be 5.5 nM, the off-rate constant (koff) came to 0.00105 s⁻¹ and the kon turned out to be 191000 M⁻¹ s⁻¹.

In turn, B6 showed a dissociation constant Kd of 4.3 nM, a koff of 0.0012 s⁻¹ and an on-rate (kon) of 276000 M⁻¹ s⁻¹.

A further experiment deals with T6, huCD40(1-193) (human, UniProt P25942 21-193).
T6 construct: Soluble form used in Octet; also called human CD40; soluble human CD40
As to the kind of experiment: Octet, soluble antigen.
Consider B7, for which the dissociation constant (Kd) stood at 0.7 nM, the off-rate (koff) was 0.000403 s⁻¹ and the kon is 584000 M⁻¹ s⁻¹.

For B8, the Kd stood at 0.4 nM, the koff was found to be 0.000467 s⁻¹ and the on-rate constant (kon) is 1.08e+06 M⁻¹ s⁻¹.

The target of a further experiment is T3, cynoCD40(1-193). In words: Octet, soluble antigen.
Turning to B7, binding was characterised by a dissociation constant (Kd) of 0.9 nM, the off-rate (koff) amounted to 0.000358 s⁻¹ and the on-rate (kon) is 420000 M⁻¹ s⁻¹.

As for B8, the Kd turned out to be 0.2 nM, the off-rate (koff) came out at 0.000423 s⁻¹ and the kon came to 1.86e+06 M⁻¹ s⁻¹.

The next experiment deals with huMSLN(296-598) (human, UniProt Q13421 296-598). As to the kind of experiment: Octet, soluble antigen.
Target sequence in this assay (Q13421 other isoform, or with tags, fused parts or gaps): as above
In turn, B7 returned a dissociation constant (Kd) of 0.2 nM, a koff of 0.000176 s⁻¹ and a kon of 878000 M⁻¹ s⁻¹.

In turn, B8 had an equilibrium dissociation constant (Kd) of 1.3 nM, a koff of 0.000242 s⁻¹ and a kon of 181000 M⁻¹ s⁻¹.

A further experiment concerns the target human CD40 on purified human B cells (human, UniProt P25942 21-277). As to the kind of experiment: cell-based or functional assay.
B7: the “EC50 (nM), CD86 upregulation on human B cells in the presence of CHO cells expressing human mesothelin” value is 0.008 nM.

Take B8: the “EC50 (nM), CD86 upregulation on human B cells in the presence of CHO cells expressing human mesothelin” value is 0.004 nM.

The next experiment concerns the target human CD40 (human, UniProt P25942 21-277). In words: cell-based or functional assay.
For B1, the “EC50 (nM), CD86 upregulation on human B cells with huMSLN-CHO cells” value (from here on “EC50 (nM) … with huMSLN-CHO cells”) amounted to 0.00403 nM.

For B2, the “EC50 (nM) … with huMSLN-CHO cells” value amounted to 0.00281 nM.

As to B3, the “EC50 (nM) … with huMSLN-CHO cells” value stood at 0.00434 nM.

Take B4: the “EC50 (nM) … with huMSLN-CHO cells” value stood at 0.00333 nM.

As for B5, the “EC50 (nM) … with huMSLN-CHO cells” value turned out to be 0.00375 nM.

In the case of B6, the “EC50 (nM) … with huMSLN-CHO cells” value amounted to 0.00776 nM.
